This is an account of results in patent EP4790069A1 (Kyoto University, dated 2026).

In one assay the target is T1, mouse CD153 (mouse, UniProt P32972 1-239).
T1 construct: whole, on cells; also called mCD153
T1 sequence (looked up): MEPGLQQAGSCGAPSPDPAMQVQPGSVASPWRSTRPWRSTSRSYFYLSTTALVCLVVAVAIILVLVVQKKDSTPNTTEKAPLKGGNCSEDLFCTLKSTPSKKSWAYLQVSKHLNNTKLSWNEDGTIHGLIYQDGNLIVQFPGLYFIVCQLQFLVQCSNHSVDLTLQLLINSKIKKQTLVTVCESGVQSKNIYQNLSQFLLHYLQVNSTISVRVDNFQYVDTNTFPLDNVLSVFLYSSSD
Briefly: flow cytometry on EL4 cells stably expressing mouse CD153.

A further assay has as its target T2, human CD153 (human, UniProt P32971 1-234).
T2 construct: whole, on cells; also called hCD153; CD30L
T2 sequence (looked up): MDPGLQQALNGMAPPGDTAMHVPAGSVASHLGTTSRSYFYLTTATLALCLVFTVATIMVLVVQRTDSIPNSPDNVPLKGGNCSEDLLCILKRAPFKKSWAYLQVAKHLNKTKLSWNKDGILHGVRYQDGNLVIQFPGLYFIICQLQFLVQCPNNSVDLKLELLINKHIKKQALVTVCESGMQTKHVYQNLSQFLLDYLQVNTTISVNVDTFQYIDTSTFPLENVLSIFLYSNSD
Briefly: flow cytometry, hybridoma supernatant on 293H cells expressing hCD153.

B1: anti-human CD153 monoclonal antibody 2H7-9 (antibody, V domains shown)
VH: RVQLQQSGAELVRPGTSVKISCKASGYAFTNYWLGWVKQRPGHGLEWIGDIYPGNYNSYSNEKFKGKATLTADESSSTAYMQLSSLTSEDSAVYFCARIYGNYWIFDVWGAGTTVTVSS
VL: QIVLTQSPAIMSASPGEKVTMTCSASSSVNYMHWFQQKPGTSPKLWIYSTSDLASGVPARFSGSGSGTSYSLTISRMEAEDAATYYCQQRSSYPLTFGAGTKLELK
notes: Mouse hybridoma antibody (CD153-KO B6 mouse), purified with Protein A and detected with anti-mouse IgG
Take B1: the binding result is on record as “no binding (tested: 160 µg/ml to 0.00977 µg/ml)” in the assay with mouse CD153 and “binds” in the assay with human CD153.
